Data: patent US20240336672A1

Key:
Conditions in all cases: remark: other sources report otherwise
[1] = target: SARS-CoV-2 RBD (B.1.1.7) domain (SARS-CoV-2); experiment: ELISA; set-up: unit not given beside the values
[2] = target: SARS-CoV-2 RBD (B.1.351) domain (SARS-CoV-2); experiment: ELISA; set-up: unit not given beside the values
[3] = target: SARS-CoV-2 RBD (P.1) domain (SARS-CoV-2); experiment: ELISA; set-up: unit not given beside the values
[4] = target: SARS-CoV-2 RBD (B.1.1.7) domain (SARS-CoV-2); experiment: RBD/ACE2 blocking ELISA
[5] = target: SARS-CoV-2 RBD (B.1.351) domain (SARS-CoV-2); experiment: RBD/ACE2 blocking ELISA
[6] = target: SARS-CoV-2 RBD (P.1) domain (SARS-CoV-2); experiment: RBD/ACE2 blocking ELISA
[7] = target: SARS-CoV-2 RBD (B.1.1.7) domain (SARS-CoV-2); experiment: ELISA; set-up: unit not given beside the values; remark: listed apart in the source
[8] = target: SARS-CoV-2 RBD (B.1.351) domain (SARS-CoV-2); experiment: ELISA; set-up: unit not given beside the values; remark: listed apart in the source
[9] = target: SARS-CoV-2 RBD (P.1) domain (SARS-CoV-2); experiment: ELISA; set-up: unit not given beside the values; remark: listed apart in the source
[10] = target: T1, SARS-CoV-2 Spike ectodomain (tri-S), Wuhan (SARS-CoV-2), P0DTC2; experiment: tri-S capture ELISA
[11] = target: T1, SARS-CoV-2 Spike ectodomain (tri-S), …; experiment: ELISA, coated antigen
[12] = target: T1, SARS-CoV-2 Spike ectodomain (tri-S), …; experiment: SPR (Biacore), antibody immobilised
[13] = target: SARS-CoV-2 RBD (B.1.1.7) domain (SARS-CoV-2); experiment: RBD-ACE2 competition ELISA; set-up: unit not given beside the values
[14] = target: SARS-CoV-2 RBD (B.1.351) domain (SARS-CoV-2); experiment: RBD-ACE2 competition ELISA; set-up: unit not given beside the values
[15] = target: SARS-CoV-2 RBD (P.1) domain (SARS-CoV-2); experiment: RBD-ACE2 competition ELISA; set-up: unit not given beside the values
[16] = target: SARS-CoV-2 RBD (B.1.1.7) domain (SARS-CoV-2); experiment: RBD-ACE2 competition ELISA; set-up: unit not given beside the values; remark: listed apart in the source
[17] = target: SARS-CoV-2 RBD (B.1.351) domain (SARS-CoV-2); experiment: RBD-ACE2 competition ELISA; set-up: unit not given beside the values; remark: listed apart in the source
[18] = target: SARS-CoV-2 RBD (P.1) domain (SARS-CoV-2); experiment: RBD-ACE2 competition ELISA; set-up: unit not given beside the values; remark: listed apart in the source
[19] = target: T1, SARS-CoV-2 Spike ectodomain (tri-S), …; experiment: competition ELISA vs bio-Cv2.1169
[20] = target: T1, SARS-CoV-2 Spike ectodomain (tri-S), …; experiment: competition ELISA vs bio-Cv2.1353
[21] = target: T1, SARS-CoV-2 Spike ectodomain (tri-S), …; experiment: competition ELISA vs bio-Cv2.3194
[22] = target: T1, SARS-CoV-2 Spike ectodomain (tri-S), …; experiment: competition ELISA vs bio-Cv2.3235
[23] = target: T1, SARS-CoV-2 Spike ectodomain (tri-S), …; experiment: competition ELISA vs bio-Cv2.5213
[24] = target: T1, SARS-CoV-2 Spike ectodomain (tri-S), …; experiment: tri-S/ACE2 blocking ELISA [B]
[25] = target: T1, SARS-CoV-2 Spike ectodomain (tri-S), …; experiment: competition ELISA, spike protein binding to ACE2 ectodomain
[26] = target: T1, SARS-CoV-2 Spike ectodomain (tri-S), …; experiment: biotinylated tri-S on immobilised ACE2, competition ELISA
[27] = target: T1, SARS-CoV-2 Spike ectodomain (tri-S), …; experiment: ELISA; set-up: unit not given beside the values
[28] = target: T1, SARS-CoV-2 Spike ectodomain (tri-S), …; experiment: tri-S/ACE2 blocking ELISA
[29] = target: SARS-CoV-2 RBD (P.1) domain (SARS-CoV-2); experiment: ELISA

Binder | AUC (RBD bind.) [7] | AUC [8] | AUC (RBD bind.) [8] | AUC (RBD bind.) [9] | triS Capt-ELISA [10] | ELISA OD [11] | triS ELISA (AUC) [11] | Kd [12] | AUC (RBD block.) [13] | AUC (RBD block.) [14] | AUC (RBD block.) [15] | AUC (RBD block.) [16] | AUC (RBD block.) [17] | AUC (RBD block.) [18] | % inhibition (competition) [19] | % inhibition (competition) [20] | % inhibition (competition) [21] | % inhibition (competition) [22] | % inhibition (competition) [23] | AUC of blocking [24] | further results
COV2-2130 (antibody, V domains shown) VH: EVQLVESGGGLVKPGGSLRLSCAASGFTFRDVWMSWVRQAPGKGLEWVGRIKSKIDGGTTDYAAPVKGRFTISRDDSKNTLYLQMNSLKTEDTAVYYCTTAGSYYYDTVGPGLPEGKFDYWGQGTLVTVSS VL: not shown | – | – | – | – | – | – | – | – | – | – | – | – | – | – | – | – | – | – | – | – | AUC [1]: 3; AUC [2]: 3; AUC [3]: 3; % binding inhibition [4]: 85%; % binding inhibition [5]: 96%; % binding inhibition [6]: 90%
Cv2.1353 (recombinant human IgG1) (antibody) heavy: EVQLVESGGGLVQPGGSLRLSCAASGVTVSSNYMNWVRQAPGKGLEWVSVIYSGGSTFYADSVKGRFIISRDNSKNTLYLQMNSLKTEDTAVYYCARDLGPMGFDIWGQGTMVTVSSASTKGPSVFPLAPSSKSTSGGTAALGCLVKDYFPEPVTVSWNSGALTSGVHTFPAVLQSSGLYSLSSVVTVPSSSLGTQTYICNVNHKPSNTKVDKKVEPKSCDKTHTCPPCPAPELLGGPSVFLFPPKPKDTLMISRTPEVTCVVVDVSHEDPEVKFNWYVDGVEVHNAKTKPREEQYNSTYRVVSVLTVLHQDWLNGKEYKCKVSNKALPAPIEKTISKAKQPREPQVYTLPPSRDELTKNQVSLTCLVKGFYPSDIAVEWESNGQPENNYKTTPPVLDSDGSFFLYSKLTVDKSRWQQGNVFSCSVMHEALHNHYTQKSLSLSPGK light: DIQMTQSPSFLSASVGDRVTITCRASQGISSYLAWYQQKPGKAPKLLIYAASTLQSGVPSRFSGSGSGTEFTLTISSLQPEDFATYYCQQLNSDPPVTFGPGTKVDIKRTVAAPSVFIFPPSDEQLKSGTASVVCLLNNFYPREAKVQWKVDNALQSGNSQESVTEQDSKDSTYSLSSTLTLSKADYEKHKVYACEVTHQGLSSPVTKSFNRGEC | 12 | 13 | 12 | 13 | 2.2 | 3.5 OD | 14 AUC | 2.22 nM | 203 | 62 | 66 | 102 | 31 | 33 | 86 | 88 | 88 | 97 | 90 | 156 | ACE2 Block (%) [25]: 92%; EC50 [26]: 0.26 µg/mL
ADG-2 (antibody, V domains shown) VH: EVQLVESGGGLVKPGGSLRLSCAASGFTFSSYYMNWVRQAPGKGLEWVSSISEDGYSTYYPDSLKGRFTISRDSAKNSLYLQMNSLRADDTAVYYCARDFSGHTAWAGTGFEYWGQGTLVTVSS VL: QSVLTQPPSVSGAPGQRITISCTGSSSNIGAGYDVHWYQQLPGTAPKLLIYGSSSRNSGVPDRFSGSKSGTSASLAITGLQAEDEADYYCQSYDSSLSVLYTFGTGTKVTVL | – | – | – | – | – | – | – | – | – | – | – | – | – | – | – | – | – | – | – | – | AUC [1]: 3; AUC [2]: 3; AUC [3]: 3; AUC [27]: 3; % binding inhibition [4]: 92%; % binding inhibition [5]: 95%; % binding inhibition [6]: 89%; % binding inhibition [28]: 96%
Cv2.5213 (recombinant human IgG1) (antibody) heavy: EVQLVESGGGLIQPGGSLRLSCAASGFTVSSNYMSWVRQAPGKGLEWVSLIYSGGSTYYADSVKGRFTISRDNSKNTLYLQMNSLRAEDTAVYYCARDLNYYGMDVWGQGATVTVSSASTKGPSVFPLAPSSKSTSGGTAALGCLVKDYFPEPVTVSWNSGALTSGVHTFPAVLQSSGLYSLSSVVTVPSSSLGTQTYICNVNHKPSNTKVDKKVEPKSCDKTHTCPPCPAPELLGGPSVFLFPPKPKDTLMISRTPEVTCVVVDVSHEDPEVKFNWYVDGVEVHNAKTKPREEQYNSTYRVVSVLTVLHQDWLNGKEYKCKVSNKALPAPIEKTISKAKQPREPQVYTLPPSRDELTKNQVSLTCLVKGFYPSDIAVEWESNGQPENNYKTTPPVLDSDGSFFLYSKLTVDKSRWQQGNVFSCSVMHEALHNHYTQKSLSLSPGK light: not shown | 13 | 1 | 2 | 9 | 2.1 | 3.8 OD | 14.2 AUC | 6.54 nM | 45 | 18 | 9 | 22 | 9 | 4 | 81 | 84 | 81 | 98 | 90 | 181 | EC50 (read off the curve) [29]: 0.07 µg/mL; ACE2 Block (%) [25]: 90%; EC50 [26]: 0.22 µg/mL
Cv2.3235 (recombinant human IgG1) (antibody) heavy: EVQLVESGGGLIQPGGSLRLSCAASGFTVSRNYMSWVRQAPGKGLEWVSVIYSGGSTFYADSVKGRFTISRDNSKNTLYLQMNSLRAEDTAVYYCARDGDYYGMDVWGQGTTVTVSSASTKGPSVFPLAPSSKSTSGGTAALGCLVKDYFPEPVTVSWNSGALTSGVHTFPAVLQSSGLYSLSSVVTVPSSSLGTQTYICNVNHKPSNTKVDKKVEPKSCDKTHTCPPCPAPELLGGPSVFLFPPKPKDTLMISRTPEVTCVVVDVSHEDPEVKFNWYVDGVEVHNAKTKPREEQYNSTYRVVSVLTVLHQDWLNGKEYKCKVSNKALPAPIEKTISKAKQPREPQVYTLPPSRDELTKNQVSLTCLVKGFYPSDIAVEWESNGQPENNYKTTPPVLDSDGSFFLYSKLTVDKSRWQQGNVFSCSVMHEALHNHYTQKSLSLSPGK light: DIQMTQSPSFLSASVGDRVTITCRASQGISSFLAWYQQKPGKAPKLLIYGASTLQSGVTSRFSGSGSGTEFTLTISSLQPEDFATYYCQRLDSYPPITFGQGTRLEIKRTVAAPSVFIFPPSDEQLKSGTASVVCLLNNFYPREAKVQWKVDNALQSGNSQESVTEQDSKDSTYSLSSTLTLSKADYEKHKVYACEVTHQGLSSPVTKSFNRGEC | 13 | 1 | 1 | 2 | 1 | 3.6 OD | 13.2 AUC | 5.37 nM | 30 | 25 | 4 | 15 | 13 | 2 | 34 | 56 | 60 | 93 | 67 | 164 | ACE2 Block (%) [25]: 78%; EC50 [26]: 0.47 µg/mL
